The record followed here is PMC5995851, “Conformational rearrangements of the C1 ring in KaiC measure the timing of assembly with KaiB” (Scientific Reports, 2018).

Substitutions are numbered along the chain they refer to.

In assay [1] the target is T1, KaiC^S157W-D/T (S157W/S431D, pS/T mimic) (Synechococcus elongatus, UniProt Q79PF4 1-519, S157W | S431D).
T1 construct: Circadian clock protein KaiC, Synechococcus elongatus, with C1 and C2 domains; Trp probe S157W and phospho-mimicking S431D
T1 sequence: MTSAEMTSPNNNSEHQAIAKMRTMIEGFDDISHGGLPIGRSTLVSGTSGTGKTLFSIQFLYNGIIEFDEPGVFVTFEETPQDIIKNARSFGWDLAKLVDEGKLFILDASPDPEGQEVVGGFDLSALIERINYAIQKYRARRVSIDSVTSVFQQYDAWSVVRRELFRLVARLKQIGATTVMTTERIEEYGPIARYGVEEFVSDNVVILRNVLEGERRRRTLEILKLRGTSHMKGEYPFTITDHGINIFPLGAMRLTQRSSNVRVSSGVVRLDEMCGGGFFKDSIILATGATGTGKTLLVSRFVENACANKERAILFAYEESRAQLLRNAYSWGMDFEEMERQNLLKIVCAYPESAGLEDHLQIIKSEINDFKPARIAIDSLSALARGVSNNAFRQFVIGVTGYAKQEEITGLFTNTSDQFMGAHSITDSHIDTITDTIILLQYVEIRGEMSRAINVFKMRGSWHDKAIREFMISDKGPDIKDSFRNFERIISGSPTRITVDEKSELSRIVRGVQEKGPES
Nature of the assay: tryptophan (W157) fluorescence quenching; KaiC^S157W phospho-mimicking mutants with or without an equimolar concentration of KaiB (monomer basis), spectra after 24 h incubation at 30 °C; 50 mM Tris, 150 mM NaCl, 5 mM MgCl2, 0.5 mM EDTA, 1 mM ATP, pH 8.0; excitation 295 nm. The following applies: both partners purified.

Assay [2] deals with T2, KaiC^S157W-D/E (S157W/S431D/T432E, pS/pT mimic) (Synechococcus elongatus, UniProt Q79PF4 1-519, S157W | S431D | T432E).
T2 construct: Circadian clock protein KaiC, Synechococcus elongatus, with C1 and C2 domains; Trp probe S157W and phospho-mimicking S431D/T432E
T2 sequence: T1 sequence with T432E
In words: other fluorescence titration; time-resolved W157 fluorescence at 30 °C after addition of KaiB to KaiC pre-incubated at 30 °C for at least 2 h; KaiC^S157W-D/E fixed at 3.5 µM, KaiB equimolar or 0.9-10.5 µM; 1 mM ATP buffer, pH 8.0. Particulars: both partners purified.

B1: KaiB (wild type) (natural protein, Synechococcus elongatus, UniProt Q79PF5 1-102, looked up)
chain: MSPRKTYILKLYVAGNTPNSVRALKTLKNILEVEFQGVYALKVIDVLKNPQLAEEDKILATPTLAKVLPLPVRRIIGDLSDREKVLIGLDLLYGELQDSDDF
notes: Circadian clock protein KaiB, Synechococcus elongatus, wild type
For the molecule B1, in assay [1], the binding result is recorded as “binds”. The “t1/2 of the FIapp decrease after addition of equimolar KaiB” value in assay [2] was found to be 2.4 h.
